Common to all, as to assay: purified protein
Holding throughout (format): biochemical, uncultured bacterium
What all share (settings): hydrolysis, conditions of the kinetic assay not stated separately (general pNP assay: 100 mM sodium phosphate pH 8.0, Triton, 40 °C)

Data set [1] concerns T1, CC(=O)Oc1ccc([N+](=O)[O-])cc1.
T1 construct: whole 367-residue ORF with its putative signal peptide, N-terminal 6xHis (pET14b), E. coli BL21(DE3) pLysS, Ni-NTA; forward primer codes MIMKKQNFF; GHSQG with Ser189

For data set [2], the system named is T2, CCCC(=O)Oc1ccc([N+](=O)[O-])cc1.
T2 construct: whole 367-residue ORF with its putative signal peptide, N-terminal 6xHis (pET14b), E. coli BL21(DE3) pLysS, Ni-NTA; forward primer codes MIMKKQNFF; GHSQG with Ser189

Data set [3] has as its system T3, CCCCCCCCCC(=O)Oc1ccc([N+](=O)[O-])cc1.
T3 construct: whole 367-residue ORF with its putative signal peptide, N-terminal 6xHis (pET14b), E. coli BL21(DE3) pLysS, Ni-NTA; forward primer codes MIMKKQNFF; GHSQG with Ser189

In the case of Est10 (uncultured bacterium), in data set [1], the Km is reported as 0.3 (0.1) mM, the catalytic constant (kcat) came out at 0.22 s⁻¹ and the specificity constant (kcat/Km) came to 800 M⁻¹ s⁻¹. Moreover, in data set [2], the Km is 0.16 (0.02) mM, the turnover number (kcat) came to 3.1 s⁻¹ and the kcat/Km worked out at 19000 M⁻¹ s⁻¹. In data set [3], the Km is reported as 0.35 (0.06) mM, the kcat worked out at 0.72 s⁻¹ and the catalytic efficiency (kcat/Km) came to 2100 M⁻¹ s⁻¹.

Usually kcat stands for the number of substrate molecules converted per active site and unit of time at saturation. One may read the kcat/Km as the second-order rate constant that governs catalysis at low substrate concentration.
